The values that follow come from publication PMC4912689, “The Extracellular Surface of the GLP-1 Receptor Is a Molecular Trigger for Biased Agonism” (Cell, 2016).

One test has as its system human GLP-1R R190A. As to the kind of experiment: cAMP production at R190A mutant. It counts as cell-based. To be noted: Figure S3. In general terms: Cyclic AMP is a second messenger, typically raised through Gs and lowered through Gi signalling.
In test [1] the target is T1, human GLP-1R wildtype (Homo sapiens, UniProt P43220). As to the kind of experiment: ERK1/2 phosphorylation. It counts as cell-based. Particulars: normalized to FBS; n=3, duplicate; Figure S7.
T1 sequence (P43220 24-463): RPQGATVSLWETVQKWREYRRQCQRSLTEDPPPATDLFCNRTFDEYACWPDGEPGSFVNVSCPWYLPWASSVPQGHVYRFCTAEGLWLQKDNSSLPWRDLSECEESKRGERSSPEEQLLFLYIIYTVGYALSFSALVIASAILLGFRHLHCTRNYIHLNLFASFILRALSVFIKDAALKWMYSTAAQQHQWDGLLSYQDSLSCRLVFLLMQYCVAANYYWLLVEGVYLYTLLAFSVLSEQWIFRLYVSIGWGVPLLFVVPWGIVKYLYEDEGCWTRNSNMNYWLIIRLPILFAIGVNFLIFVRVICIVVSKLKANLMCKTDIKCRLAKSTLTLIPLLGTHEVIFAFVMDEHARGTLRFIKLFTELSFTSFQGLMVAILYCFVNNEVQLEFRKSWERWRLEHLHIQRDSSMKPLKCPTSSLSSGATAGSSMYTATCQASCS
In test [2] the target is T1, human GLP-1R wildtype. As to the kind of experiment: cAMP accumulation. It counts as cell-based. To be noted: normalized to forskolin; n=3, duplicate; Figure S7.
For another test, the target named is exendin-4, P26349. As to the kind of experiment: radioligand inhibition binding (competition with 125I-exendin-4(9-39)). Particulars: chain shown with the change;; read off a plot.

Positions count from the first letter of the chain named. Names and notes keep the numbering of the source. “Also recorded” adds a separate entry of the source.

Protocol for human GLP-1R R190A: For cAMP assays, cells were stimulated for 30 min in the presence of the phosphodiesterase inhibitor IBMX and then lysed.
Dulbecco’s Modified Eagle’s Medium (DMEM) and Fluo-4 AM were purchased
from Invitrogen (Carlsbad, CA, USA). Foetal bovine serum (FBS) was purchased from Thermo
Electron Corporation (Melbourne, VIC, Australia). AlphaScreen reagents, 384-well opti and
proxiplates were purchased from PerkinElmer Life and Analytical Sciences (Waltham, MA, USA).
All other reagents were purchased from
Sigma-Aldrich (St. Louis, MO, USA) or BDH Merck (Melbourne, Vic, Australia) and were of an
Receptor mutagenesis. To study the influence of ECL amino acids, and R190 on receptor function,
the desired mutations were introduced to an N-terminally double c-myc labeled wild-type human GLP-
1R in the pEF5/FRT/V5-DEST destination vector (Invitrogen); this receptor had equivalent
Mutagenesis was carried out using oligonucleotides for
site-directed mutagenesis purchased from GeneWorks (HindMarsh, SA, Australia) and the
QuikChangeTM site-directed mutagenesis kit (Stratagene) and confirmed by automated sequencing
Cell culture: Stable transfections; Wild-type and mutant human GLP-1Rs were isogenically
integrated into FlpIn-Chinese hamster ovary (FlpInCHO) cells (Invitrogen) and selection of receptor-
expressing cells accomplished by treatment with 600 µg ml-1 hygromycin-B as previously described […]

Turning to “modified oxyntomodulin: oxyntomodulin with Q^3 substituted with E (HSEGTFTSDYSKYLDSRRAQDFVQWLMNTKRNRNNIA; Oxyntomodulin; UniProt P01275 53-89, looked up, variant Q3E)”, the “requirement of R190 for cAMP production” value in the test on human GLP-1R R190A is on record as “required for cAMP production”.
GLP-1(9-36)NH2: the pERK1/2 response result on human GLP-1R wildtype [1] is on record as “can still promote pERK1/2; also recorded: maintains the ability to promote pERK1/2”. Further, on human GLP-1R wildtype [2], the cAMP response result was “unable to activate the cAMP pathway; also recorded: unable to generate a cAMP response”.

B1: glucagon-like peptide 1 receptor (GLP-1R), wild-type, P43220 T386A (protein)
chain: RPQGATVSLWETVQKWREYRRQCQRSLTEDPPPATDLFCNRTFDEYACWPDGEPGSFVNVSCPWYLPWASSVPQGHVYRFCTAEGLWLQKDNSSLPWRDLSECEESKRGERSSPEEQLLFLYIIYTVGYALSFSALVIASAILLGFRHLHCTRNYIHLNLFASFILRALSVFIKDAALKWMYSTAAQQHQWDGLLSYQDSLSCRLVFLLMQYCVAANYYWLLVEGVYLYTLLAFSVLSEQWIFRLYVSIGWGVPLLFVVPWGIVKYLYEDEGCWTRNSNMNYWLIIRLPILFAIGVNFLIFVRVICIVVSKLKANLMCKTDIKCRLAKSTLTLIPLLGTHEVIFAFVMDEHARGTLRFIKLFAELSFTSFQGLMVAILYCFVNNEVQLEFRKSWERWRLEHLHIQRDSSMKPLKCPTSSLSSGATAGSSMYTATCQASCS
In the case of B1, the log10 ratio in the test with exendin-4, P26349 is -0.55 ΔpKi.

B2: glucagon-like peptide 1 receptor (GLP-1R), wild-type, P43220 M303A (protein)
chain: B1 chain with M280A, A363T
Consider B2, for which the log10 ratio with exendin-4, P26349 is -0.7 ΔpKi.

B3: glucagon-like peptide 1 receptor (GLP-1R), wild-type, P43220 Q210A (protein)
chain: B1 chain with Q187A, A363T
For the molecule B3, the log10 ratio in the test with exendin-4, P26349 was -0.25 ΔpKi.

B4: glucagon-like peptide 1 receptor (GLP-1R), wild-type, P43220 G285A (protein)
chain: B1 chain with G262A, A363T
On to B4, for which the log10 ratio with exendin-4, P26349 was -0.1 ΔpKi.

B5: glucagon-like peptide 1 receptor (GLP-1R), wild-type, P43220 V287A (protein)
chain: B1 chain with V264A, A363T
For B5, in the test with exendin-4, P26349, the log10 ratio is -0.25 ΔpKi.

B6: glucagon-like peptide 1 receptor (GLP-1R), wild-type, P43220 D215A (protein)
chain: B1 chain with D192A, A363T
As for B6, the log10 ratio in the test with exendin-4, P26349 is -0.25 ΔpKi.

B7: glucagon-like peptide 1 receptor (GLP-1R), wild-type, P43220 T298A (protein)
chain: B1 chain with T275A, A363T
Regarding B7, in the test with exendin-4, P26349, the log10 ratio was -0.1 ΔpKi.

B8: glucagon-like peptide 1 receptor (GLP-1R), wild-type, P43220 Q211A (protein)
chain: B1 chain with Q188A, A363T
Consider B8, for which the log10 ratio with exendin-4, P26349 was -0.2 ΔpKi.

B9: glucagon-like peptide 1 receptor (GLP-1R), wild-type, P43220 Y205A (protein)
chain: B1 chain with Y182A, A363T
Regarding B9, in the test with exendin-4, P26349, the log10 ratio was -0.5 ΔpKi.

B10: glucagon-like peptide 1 receptor (GLP-1R), wild-type, P43220 D293A (protein)
chain: B1 chain with D270A, A363T
Regarding B10, in the test with exendin-4, P26349, the log10 ratio is -1.1 ΔpKi.

B11: glucagon-like peptide 1 receptor (GLP-1R), wild-type, P43220 M204A (protein)
chain: B1 chain with M181A, A363T
With B11, the log10 ratio with exendin-4, P26349 was -0.75 ΔpKi.

B12: glucagon-like peptide 1 receptor (GLP-1R), wild-type, P43220 L290A (protein)
chain: B1 chain with L267A, A363T
Turning to B12, the log10 ratio in the test with exendin-4, P26349 is -0.4 ΔpKi.

B13: glucagon-like peptide 1 receptor (GLP-1R), wild-type, P43220 K202A (protein)
chain: B1 chain with K179A, A363T
In the case of B13, the log10 ratio with exendin-4, P26349 was -0.25 ΔpKi.

B14: glucagon-like peptide 1 receptor (GLP-1R), wild-type, P43220 N304A (protein)
chain: B1 chain with N281A, A363T
With B14, in the test with exendin-4, P26349, the log10 ratio was -0.4 ΔpKi.

B15: glucagon-like peptide 1 receptor (GLP-1R), wild-type, P43220 F381A (protein)
chain: B1 chain with F358A, A363T
Turning to B15, in the test with exendin-4, P26349, the log10 ratio is -0.35 ΔpKi.

B16: glucagon-like peptide 1 receptor (GLP-1R), wild-type, P43220 T207A (protein)
chain: B1 chain with T184A, A363T
Turning to B16, the log10 ratio with exendin-4, P26349 was -0.2 ΔpKi.

B17: glucagon-like peptide 1 receptor (GLP-1R), wild-type, P43220 Y305A (protein)
chain: B1 chain with Y282A, A363T
Regarding B17, in the test with exendin-4, P26349, the log10 ratio was -1.7 ΔpKi.

B18: glucagon-like peptide 1 receptor (GLP-1R), wild-type, P43220 Y291A (protein)
chain: B1 chain with Y268A, A363T
For the molecule B18, the log10 ratio in the test with exendin-4, P26349 was -0.45 ΔpKi.

B19: glucagon-like peptide 1 receptor (GLP-1R), wild-type, P43220 W297A (protein)
chain: B1 chain with W274A, A363T
In the case of B19, the log10 ratio in the test with exendin-4, P26349 is -1.8 ΔpKi.

B20: glucagon-like peptide 1 receptor (GLP-1R), wild-type, P43220 S219A (protein)
chain: B1 chain with S196A, A363T
Take B20: in the test with exendin-4, P26349, the log10 ratio is -0.15 ΔpKi.

B21: glucagon-like peptide 1 receptor (GLP-1R), wild-type, P43220 H374A (protein)
chain: B1 chain with H351A, A363T
In the case of B21, the log10 ratio with exendin-4, P26349 was -0.35 ΔpKi.

B22: glucagon-like peptide 1 receptor (GLP-1R), wild-type, P43220 R380A (protein)
chain: B1 chain with R357A, A363T
Consider B22, for which, in the test with exendin-4, P26349, the log10 ratio was -1.5 ΔpKi.

B23: glucagon-like peptide 1 receptor (GLP-1R), wild-type, P43220 I382A (protein)
chain: B1 chain with I359A, A363T
For the molecule B23, the log10 ratio with exendin-4, P26349 is -0.15 ΔpKi.

B24: glucagon-like peptide 1 receptor (GLP-1R), wild-type, P43220 H212A (protein)
chain: B1 chain with H189A, A363T
As for B24, the log10 ratio with exendin-4, P26349 is 0.3 ΔpKi.

B25: glucagon-like peptide 1 receptor (GLP-1R), wild-type, P43220 N302A (protein)
chain: B1 chain with N279A, A363T
On to B25, for which the log10 ratio with exendin-4, P26349 is -1.2 ΔpKi.

B26: glucagon-like peptide 1 receptor (GLP-1R), wild-type, P43220 K288A (protein)
chain: B1 chain with K265A, A363T
Take B26: the log10 ratio with exendin-4, P26349 was -1.9 ΔpKi.

B27: glucagon-like peptide 1 receptor (GLP-1R), wild-type, P43220 L307A (protein)
chain: B1 chain with L284A, A363T
With B27, the log10 ratio with exendin-4, P26349 is -0.8 ΔpKi.

B28: glucagon-like peptide 1 receptor (GLP-1R), wild-type, P43220 W203A (protein)
chain: B1 chain with W180A, A363T
With B28, the log10 ratio in the test with exendin-4, P26349 is -0.15 ΔpKi.

B29: glucagon-like peptide 1 receptor (GLP-1R), wild-type, P43220 E294A (protein)
chain: B1 chain with E271A, A363T
On to B29, for which the log10 ratio in the test with exendin-4, P26349 is 0.1 ΔpKi.
